Residue numbers refer to the chain shown, from its start.

Here are results for two molecules from EP2420830B1 (Forschungsverbund Berlin e.V., dated 2016).

Test [1] has as its target T1, GGA2 (from HeLa cell lysate) (human (HeLa cells), UniProt Q9UJY4 1-613).
T1 sequence (looked up): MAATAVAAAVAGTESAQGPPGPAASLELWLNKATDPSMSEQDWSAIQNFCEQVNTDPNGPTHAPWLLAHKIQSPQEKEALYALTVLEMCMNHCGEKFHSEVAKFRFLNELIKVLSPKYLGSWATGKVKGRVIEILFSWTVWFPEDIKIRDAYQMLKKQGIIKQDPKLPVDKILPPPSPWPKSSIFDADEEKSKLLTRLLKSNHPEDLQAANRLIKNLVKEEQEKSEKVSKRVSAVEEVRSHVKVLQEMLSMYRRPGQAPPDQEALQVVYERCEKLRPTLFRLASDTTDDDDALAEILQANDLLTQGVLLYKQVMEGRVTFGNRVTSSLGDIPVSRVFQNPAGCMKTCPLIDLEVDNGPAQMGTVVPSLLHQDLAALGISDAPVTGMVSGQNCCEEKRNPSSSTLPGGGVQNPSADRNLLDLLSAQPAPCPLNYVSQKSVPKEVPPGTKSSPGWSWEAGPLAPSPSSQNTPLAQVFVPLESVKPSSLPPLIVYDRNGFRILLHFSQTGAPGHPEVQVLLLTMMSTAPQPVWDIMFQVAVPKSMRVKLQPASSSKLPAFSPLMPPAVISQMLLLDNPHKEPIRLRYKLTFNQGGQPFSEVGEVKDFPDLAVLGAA
The test is described as follows: GST pull-down from HeLa cell extract, immunoblot. A general note: A western blot detects proteins with antibodies after separation by electrophoresis.

In test [2] the target is T2, GGA3 (from HeLa cell lysate) (human (HeLa cells), UniProt Q9NZ52 1-723).
T2 sequence (looked up): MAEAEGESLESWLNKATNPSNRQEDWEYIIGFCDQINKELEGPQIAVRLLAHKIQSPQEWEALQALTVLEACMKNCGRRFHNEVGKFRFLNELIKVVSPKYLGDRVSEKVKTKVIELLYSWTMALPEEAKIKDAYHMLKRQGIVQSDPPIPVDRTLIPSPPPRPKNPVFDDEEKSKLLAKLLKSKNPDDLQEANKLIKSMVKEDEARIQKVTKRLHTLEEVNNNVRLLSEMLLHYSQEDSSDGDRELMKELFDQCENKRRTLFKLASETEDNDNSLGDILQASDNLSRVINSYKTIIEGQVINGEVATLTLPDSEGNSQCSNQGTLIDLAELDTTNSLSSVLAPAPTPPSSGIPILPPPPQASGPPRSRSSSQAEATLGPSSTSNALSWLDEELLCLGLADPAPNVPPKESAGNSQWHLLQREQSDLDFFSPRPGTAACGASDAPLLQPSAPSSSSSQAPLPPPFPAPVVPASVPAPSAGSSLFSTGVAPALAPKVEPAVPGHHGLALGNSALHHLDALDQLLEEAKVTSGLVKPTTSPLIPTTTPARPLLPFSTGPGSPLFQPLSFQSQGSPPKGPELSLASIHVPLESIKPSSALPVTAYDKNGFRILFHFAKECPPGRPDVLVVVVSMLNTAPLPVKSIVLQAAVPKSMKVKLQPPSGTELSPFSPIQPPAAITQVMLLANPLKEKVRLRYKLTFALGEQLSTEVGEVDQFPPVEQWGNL
Kind of test: GST pull-down from HeLa cell extract, immunoblot.

B1: GST fusion protein of the human CIC-7 N-terminus, mutant combining LL23/24AA and LL68/69AA (2xLLAA) (other)
chain: MANVSKKVSWSGRDRDDEEAAPAARRTARPGGGTPLLNGAGPGAARQSPRSALFRVGHMSSVELDDEAADPDMDPPHPFPKEIPHNEKLLSLKYESLDYDNSENQLFLEEERRINHTAFRTVEIKR
notes: not shown: N-terminal GST tag of pGEX-5X-1 and the vector linker
Take B1: the binding result in test [1] and in test [2] was “no binding” in each case.

B2: GST fusion protein of the human CIC-7 N-terminus, mutant LL68/69AA (other)
chain: B1 chain with A23L, A24L
notes: as for B1
Regarding B2, the binding result in test [1] and in test [2] was “no binding” throughout.
